# According to the RNAGym collection of RNA variant scans (doi:10.7554/elife.80360):
# B1: CPEB3 Ribozyme (parent)
# chain: GGGGGCCACAGCAGAAGCGUUCACGUCGCGGCCCCUGUCAGAUUCUGGUGAAUCUGCGAAUUCUGCUGU
# Variants of: B1
# Assay: self-cleavage, relative activity (ratio to wild type); higher = more cleavage; co-transcriptional
row,Variant,self-cleavage
1,C6A G48C,0.693
2,C6A U46G,0.607
3,C6A U46A,0.674
4,C6A U46C,0.657
5,C6G G68U,0.509
6,C6G G68C,0.478
7,C6G G68A,0.602
8,C6A A23C,0.519
9,C6A A23U,0.749
10,C6A A23G,0.511
11,C6A A59G,0.464
12,G5U U55A,0.0876
13,G5U U55G,0.0798
14,G5U G48U,0.332
15,C6U C9U,1.05
16,C6U C9A,1.03
17,C6U C9G,1.02
18,C6U A16G,0.986
19,C6U A16U,0.841
20,C6U A16C,0.12
21,G5U U67G,0.615
22,C6A U67A,0.782
23,C6A U67C,0.883
24,C6A A13G,0.506

row,Variant,self-cleavage
1,C6U A60C,0.318
2,C6U A60G,0.85
3,C6U A60U,0.401
4,C6A G25A,0.136
5,C6A G25C,0.133
6,C6A G25U,0.1
7,G5U G65U,0.0885
8,G5U G65A,0.187
9,C6A G65U,0.305
10,C6A G65C,0.157
11,C6A G65A,0.451
12,C6U A10C,0.985
13,C6U A10U,0.999
14,C6A C29U,0.234
15,C6A C29A,0.213
16,C6G C33G,0.0662
17,C6G C33U,0.262
18,C6G C33A,0.117
19,C6A C66U,0.641
20,C6A C66G,0.44
21,C6A C66A,0.386
22,C6U A42C,0.966
23,C6U A42U,0.957
24,C6G U64A,0.133

row,Variant,self-cleavage
1,C6A G37U,0.142
2,C6A G37C,0.122
3,C6A G37A,0.149
4,C6G A15C,0.122
5,C6A U53G,0.195
6,C6A U53A,0.422
7,C6A U53C,0.335
8,C6G U36G,0.105
9,C6G U36A,0.0334
10,C6A C57A,0.182
11,C6A C57U,0.168
12,C6A C57G,0.22
13,C6G A16U,0.151
14,C6G A16C,0.0895
15,C6G G17A,0.0588
16,C6G G17C,0.0719
17,C6G G17U,0.0809
18,C6G U53C,0.108
19,C6G U53A,0.234
20,C6G U21G,0.0354
21,C6G U21C,0.312
22,C6A A16U,0.159
23,C6A A16C,0.0824
24,C6A A16G,0.418

row,Variant,self-cleavage
1,C6G A40U,0.0791
2,C6G A40C,0.128
3,C6G A40G,0.307
4,C6G C57U,0.189
5,C6G C57A,0.0667
6,G5U U21A,0.158
7,G5U U21C,0.119
8,C6G C24U,0.193
9,C6G C24G,0.085
10,C6G C24A,0.0804
11,C6G,0.388
12,C6U,1.01
13,C6A,0.705
14,C6U C7G,0.198
15,C6U C7A,0.254
16,C6G A60U,0.137
17,C6G A60G,0.16
18,C6A G30U,0.157
19,C6A G30A,0.338
20,C6A A10U,0.903
21,C6A A10C,0.67
22,C6A A10G,0.798
23,C6A C45G,0.595
24,C6A C45U,0.708

row,Variant,self-cleavage
1,C6A C63A,0.237
2,C6G G28U,0.0241
3,C6G U61C,0.0649
4,C6A U43G,0.367
5,C6G C63G,0.149
6,C6G C63A,0.185
7,C6G C63U,0.262
8,C6A A51U,0.545
9,C6A A51C,0.458
10,C6A A51G,0.604
11,C6A C35A,0.114
12,C6G A10U,0.375
13,C6G A10G,0.459
14,C6G C34G,0.0582
15,C6G C34U,0.304
16,C6A A60G,0.326
17,C6A A60C,0.17
18,C6A A60U,0.226
19,C6A A52G,0.58
20,C6A A52U,0.559
21,C6G G47A,0.377
22,C6G G47C,0.36
23,C6A G41A,0.241
24,C6U A15G,0.981

row,Variant,self-cleavage
1,C6U A15C,0.802
2,C6G G19U,0.0686
3,C6G G19C,0.0471
4,C6G G19A,0.0949
5,C6G C32U,0.212
6,C6G C32A,0.0685
7,C6G C32G,0.0963
8,C6A C54U,0.67
9,C6A U49C,0.716
10,C6A U49G,0.5
11,C6G C27U,0.0872
12,C6G C27G,0.0563
13,C6G C27A,0.0381
14,C6G U62A,0.129
15,C6G U62G,0.0551
16,G5U U20C,0.0958
17,G5U U20G,0.0745
18,G5U U20A,0.0505
19,C6G C18G,0.062
20,C6G C18A,0.0602
21,C6G C18U,0.0723
22,G5U U26A,0.132
23,G5U U26G,0.103
24,C6A A15C,0.235

row,Variant,self-cleavage
1,C6A U55C,0.142
2,C6G G37C,0.0619
3,C6G G37A,0.0792
4,C6A U62C,0.338
5,G5U U43G,0.161
6,G5U U69G,0.671
7,C6A C12A,0.16
8,C6A C12G,0.26
9,C6A U20C,0.204
10,C6A U20A,0.0587
11,C6U C22G,0.205
12,C6G G30C,0.133
13,C6G G30A,0.172
14,C6A C33U,0.347
15,C6A C33G,0.108
16,C6G A8C,0.873
17,C6G A8U,0.149
18,C6G A59G,0.255
19,C6G A59C,0.21
20,C6U C12A,0.676
21,C6U C12U,0.987
22,C6U C12G,0.726
23,C6U C18A,0.119
